Here are results for 41 sequences from the nanobody polyreactivity screen of Harvey et al. (2022).

This series is described as follows: yeast display, Sf9 membrane polyspecificity reagent, FACS + sequencing; frameworks hold sequencing errors. The essentials: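 Polyreactivity labels are assigned by the sorting gate from which each nanobody was recovered. The gates were low and high (top ~1%), set on anti-HA fluorescence for expression and streptavidin fluorescence for reagent binding. Before sorting, galactose-induced (36–48 hours) yeast display cells were stained for 1 hour at 4 °C with 10% biotinylated, detergent-solubilized Sf9 membrane reagent.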
In the case of “QVQHVESGRGLVQAGGSLRLSCAASGSTFDYNALGWSRQAPGKERELVARISSSGGITDYADSVKGRFTISRDNAKNTVYLHMNSLKPDDTAVNYCARVGKSGAVTAETRRWYYYWGQGTQVTVSS”, the “polyreactivity (PSR sort gate)” value is “low polyreactivity”. Next, “QVQHVESGVGLVQAGGSLRLSCAASGRIFRWNAMGWYRQAPGKERELVAAISWNGGRTYYADSVKGRFTISRDNAKNTVYLQMNSLKPEDTAVYYCAAPHCVPDLHSGDYWGLGTQVTVSS”: “low polyreactivity”. Next, “QVQHVESGVGLVQAGGSLRLSCAASGRTFHSSTMGWYRLAAGKERELVAAISKSGGSTYYADSVKGRFTLSRDNAKNTVYLQMNSLKPEDTAVYYCAADPGSRVHPGVYYWGQGTQLTVSS”: “high polyreactivity”; “QVQHVESGVGLVQPVGSLRLSCAASGSTIVSNAMGWERQAPGKERELVAAISTSGGTTDYPDSVKGRFTISRHNAKNTVYLQMNCLKPEDTAVYYCAARHYYVKHSYDYWGQGTQVTVSS”: “low polyreactivity”; “QVQHVESLGGLVQAGGSLRLSCAASGIIFGYYAMGWYRQAPGKERELVAAISRRGGSTYYADSVKGRFTISRDNAKNTVYLQMNSLKPEDTAVYYCAAVELRLSTPDMESWGQGTQVTVSS”: “high polyreactivity”. For “QVQHVESRGGLVQAGGSLRLSCAASGFTFYLNAKGWYRQAPGKVRELVAAISYSDGSTYYADSVKGRFTISRDNAKNTVYLQMNSLIPEDTAVYYCAADTTDPGGAYQLMEYWGQGTQVTVSS”, the “polyreactivity (PSR sort gate)” value is recorded as “high polyreactivity”. In the case of “QVQHVESRGGLVQAGGSLRLSCAASGIIFRYAMGWYRQAPGKERELVAAIRKSDGSTYYADSVKGRFTISRDNAKNTFYLQMNSLKPEDTAVYYCATDIGYGNRKGFYYWGQGSQVTVSS” it was “high polyreactivity”.

Turning to “QVQHVESVGGLVQAGGSLRLICADSGFTFWPYAMGWYRPAPGTERELVAAITSSGSTNYADSVKGRFTISRDNAKNTVYLQMNSMKQEDTAVYYCAADHRPWRFQSSVQLYYYWGQGTQVTVSS”, the “polyreactivity (PSR sort gate)” value is given as “low polyreactivity”.

In the case of “QVQHVESVGGLVQAGGSLRLSCAASGSIFGRYAMGWYRHAPGKERELVAAISWSGGSTYYADSVKGRFTISRDNAKNTVYLQMNSLKPEDTAVYYCAATTYSGFDYWGQGTQVTVSS”, the “polyreactivity (PSR sort gate)” value is “high polyreactivity”. Next, “QVQHVESVGGLVQAGGSLRLSCAASGSTFGYYAMGWYRQAPGKERELVATISATGGSTYYADSVKGRFTISRDNAKNTVYLQMNSLKPEDTAVYYCNAEYDRGNEYDYWGQGTQVTVSS”: “low polyreactivity”; “QVQHVESVGGLVQAGGSLRLSCAASGYIFDYYDIGWYRQAPGKERELVAAINWSGGNTYYADSVKGRFTISRDNAKNTVYLQMKSLKPEDTAVYYCNADPTWSLEYGYWGQGTQVTVSS”: “low polyreactivity”; “QVQHVESVGGLVQAGGSLRLSCASSASIFRPNAMGWYRQAPGKDRELVAAITWSGDSTYYADSVKGRFTISRDNAKNTVYLQMNSLKPEDTAVYYCAADFTYQGSSPNYYWGQGTQVTVSS”: “low polyreactivity”.

Turning to “QVQHVESVGGLVQAGGSLRVSCAASGTIFTFYTMGRYRPAPGKERELVAAISQTGGRTYYGDSVKGRFTISRDNAKNTVYLQMNSLKPEDTAVYYCAASVGRYAGNYWGQGTQVTVSS”, the “polyreactivity (PSR sort gate)” value is reported as “high polyreactivity”. In the case of “QVQHVETGGGLVQAGGSLRLSCAASGSTFVLYAKGWYRQAPGKERELVAAITWSGDDTYYADSVKGRFTISRDNAKNTVYLQMISLKPEDTAVYYCAAAYAYWGQGTQVTVSS” it was “low polyreactivity”; in that of “QVQHVETRGGLVQAGGSLRLSCAASGFIFIRYAMGWDRQAPGKERELVAGITSSGGSTYYADSVKGRFTISRDNAKNSVYLQMNSLKPEDTEVYFCNADSWLYRFYGYDYWGQGTQVTVSS”, “low polyreactivity”; in that of “QVQIEESGGCLVQAGGSLRLSCAASGNTFFKYNMGWSRQAPRKERELVAAITWSGGSTSYADSVKGRFTISRDNAKNTVYLQMNSLKPEDTAVYYCAAAWSHSRWDTHDYWGQGTQVTVSS”, “low polyreactivity”.

On to “QVQIEESGGCLVQAGGSLRLTCAASGRIISWNAMGWSRQAPGKERELVAGITWNGGRTYYADSVKGRFTISRDNVKNTVYLQMNSLKPEDTAVFSCNAERFDLTYNYWGQGTQVTVSS”, for which the “polyreactivity (PSR sort gate)” value was “high polyreactivity”. In the case of “QVQIEESGGGLVQEGGSLRISCAASGRIFVYYAMGWNRQAPGKDWELVAAISSGGNTYADSVKGRFTISRDNAKITVYLQMYSLKPDDTAVYYCNASPVSSHVHPKRGYEYWGQGTQVNVSS” it was “low polyreactivity”; in that of “QVQIEESGGVLVQAGGSLRLSCAASGSIFQPYALGWYRQAPGKERELVAAISSSGGSTTYADSVKGRFTISRDIAKNTVYLQMNSLKPEDTAVYYCAADSADDMGYWGQGTQVTVSS”, “low polyreactivity”; in that of “QVQIEESRVGLVQAGGSLRLSCAASGSIIYENMGWYRPAPGKERELVASISWSGTSTYADSVKGRFTMTRDNAKTTVYLLMNSLKPEDTAVYSCAAYPYPFYQSKYLGIGYGFWGQGTQVTVSS”, “high polyreactivity”. Consider “QVQILESGGWLVQAGGSLRLSCASSGRTFDVYAMGWYRQAPGKERELVAAISWGAGNTYYADSVKGRFTISRDNAKNTVYLQMNSLKPEDTAVYYCAAEDDWSEYDYWGQGTQVTVSS”, for which the “polyreactivity (PSR sort gate)” value is “high polyreactivity”. On to “QVQIVDSGRGLVQAGGSLRLSCAASGRTFIRYTMGWSRQATGKERELFAAITSGGITNYADSVKGRFTISRDNAKNPVYLQMNSLKPQDSALYYCAARHRWVTGSYGKYDYLGQGTQVTVSS”, for which the “polyreactivity (PSR sort gate)” value is “low polyreactivity”.

On to “QVQIVESGAGLVQAGGSLRLSCAASGSIYAPNAMGWYRQAPGKERELVAAISRSGGRTYYADSVKGRFTISRDNAKNTVYLQMNSLKPEDTAVYYCAADYKHQRTYGSWGQGTQVSVSS”, for which the “polyreactivity (PSR sort gate)” value is listed as “high polyreactivity”. On to “QVQIVESGGAFVQAGGSLRLRCEASGSTFVNKDMGWSRPAPGKEREFVAAIRNTGGRTYYADSVKGRFTISRDNAKNSVYLQMNSLKPEDTAVYYCAAVSRVRTLWRMDYWGQGTQVTVSS”, for which the “polyreactivity (PSR sort gate)” value is “high polyreactivity”. Next, “QVQIVESGGALVQAGGGHRLSCAASGRTFTYNAMGWYRQAPGKERELVAAITSGGSTNYADSVKGRFTISRDNAKNTVYLQMNSLKPEDTAVYYCAARRVYYSYRRYYYWGQGTQVTVSS”: “low polyreactivity”; “QVQIVESGGALVQAGGSLRLSCAASGITLRPYAMGWYRQAPGKERELVAAITSSGGSTYYADSVKGRFTISRDIAKNTVYLLMNSLIPEDTAVYYCAALRVYAGDYWGQGTQVTVSS”: “low polyreactivity”. Next, “QVQIVESGGALVQAGGSLRLSCAASGSTHGNAMGWYRQAPGKERELVAAISLNTGSTYYADSVKGRFTISRDNAKNTVYLQMNSLKPEDTAVYYCAAGGTARDDSWGQGTQVTVSS”: “low polyreactivity”; “QVQIVESGGFLVQAGGSLRLSCDASGRNIPGYGMGWSRHAPGKERELVAVITSNGGITYYADSVKGRFTISRDYAKNTVYLQMNSLKPEDTAVYYCDAYVIYYEFDSWGQGTQVTVSS”: “low polyreactivity”; “QVQIVESGGGFVQAGGSLRLSCAASGRIYGNTMGWYRQAHGKERELVAAITRSGVSTYYADSVKGRFTISRDNAKNTVYLQMNSLKPDDTAVYYCAAREWSGPKINPPYRYNSWGQGTQETVSS”: “high polyreactivity”. Next, “QVQIVESGGGLFQAGGSLRISCAASGRIFQYYTMGWYRQAPGKERELVATISRRGGTTYYADSVKGRFTISRDNAKNTVYLQMNSLKPEDTAVYYCNADSRTYRYYWSYGYWGQGTQVTVSS”: “high polyreactivity”; “QVQIVESGGGLFQAGGSLRISCAPSGRTLRYNTMGWYRQAPGKERELVAAISIRGGSTYYADSVKGRFTISRDNAKNTVYLQMNSLKPEDTAVSYCNARFTYRWGMGYWGQGTQVTVSS”: “high polyreactivity”. Regarding “QVQIVESGGGLFQAGGSLRLICAASGRIFGNYSMGSSRQEPGKEREFVAAIDWSGGTTYYADSVKGPFTISRDNAKNTVYLQMNSLKPEDTEVYYCAAKYVYSVGNYRYDYWGQGTEVTVSS”, the “polyreactivity (PSR sort gate)” value is on record as “low polyreactivity”.

In the case of “QVQIVESGGGLVQAAGSLRLSCAAYGRIFGVYAMGWYRQAPGKERELVSNITSGGSTSYADSVKGRFTISRDNAKNTVYLQMNSLKPEDTAVYYCNAPYSFFWQQMNYWGQGTQVTVSS”, the “polyreactivity (PSR sort gate)” value was “low polyreactivity”. Next, “QVQIVESGGGLVQAGCSLRLSCAASGHTFTIKAMGWYRQAPGKERELVAAITFSGGRTYYADSVKGRFTISRDNAKNTVYLQMNSLKPEDTAVYYFAADNPGGSIYDYWGQGTQVNVSS”: “low polyreactivity”. As for “QVQIVESGGGLVQAGGILRLSCAASVITFGYYAMGWYSQAPGKEWELVAAISRSGGNTRYADSVKGRFTISRDNAKNTVYLQMNSLTPEDTAVYYCAAYSRYTRTFPLFSGSRYGYWGHGTQVTVSS”, the “polyreactivity (PSR sort gate)” value was “high polyreactivity”. In the case of “QVQIVESGGGLVQAGGRLRLSCAASGSIFSIYDMGWYRQAPGKERELVAAITWGGASTYYADSVKGRFTISRDNAKNTVYLQMNSLKPEDTAVYYCAADSLTWNGTYYYWGQGTQVTVSS” it was “high polyreactivity”. Next, “QVQIVESGGGLVQAGGRLSLTCAASGRIFTAYAMRWYRPAPGKEREFVAAISARGGSTNYADSVKGRFTISRDNAMNTVYLQMNSLKPEDTAVYYCHARFVQWYWIGNVIHIDNDYWGQGSQVTVSS”: “low polyreactivity”. In the case of “QVQIVESGGGLVQAGGSHRLSCAASVFTFGGNVMGWYRQAPGKEREFVAAISSSGGSTYYADSVKGRFTISRDNEKNTVFLQINSLKPDDTAVYYCAKYAVVYQYRYYHWGQGTQVTVSS” it was “high polyreactivity”; in that of “QVQIVESGGGLVQAGGSLPLSCAASGFIYNYNAMGWYRQAPRKERELVAAISTSGSSTYYADSVKGRFTISRDTPKNTVYLQMNSLKPEVTAVYYCARYRVARGEGGWLYDYWGQGTQVTVSS”, “high polyreactivity”. With “QVQIVESGGGLVQAGGSLRISCAASGRIFRTYAMGWYRQAPGKERELVAAISSRGGSTSYADSVKGRFTISRDNEKNTVYLQLNSLKPEDTAVYYCARVGRNPVKYDYWGQGTQVTVSS”, the “polyreactivity (PSR sort gate)” value is reported as “high polyreactivity”. Next, “QVQIVESGGGLVQAGGSLRISCAASGRTYRFYAMGWYRQAPGKERELVAAISSGGSTYYADSVKGRFTISRDNAKNTVYLQMNSLNPEDTAVYYCAAQRWRGASLYDYWGQGTQVTVSS”: “high polyreactivity”.
